Source: article PMC9687980 (Bioengineering, 2022)

How the values were obtained:
[1] = biological target: T1, MBP-fused spike receptor binding domain of SARS-CoV-2 Omicron BA.1 (MBP-RBDomi) (SARS-CoV-2 Omicron BA.1 (GenBank …, strain)); experiment: ELISA; 4 ug of recombinant RBD immobilised on a high-binding plate; blocked with 4% skim milk; serial-diluted antibody in PBST; detected with Protein A-HRP, 450 nm; conditions: both partners purified
T1 construct: also called MBP-fused Omicron RBD; MBP-RBD_(omicron)

[2] = biological target: T2, spike RBD of SARS-CoV-2 Omicron expressed in a mammalian system (SARS-CoV-2 Omicron, taken as BA.1, strain, N-linked glycans appended on N331 and N343); experiment: as above; conditions: both partners purified
T2 construct: also called Mammalian RBDomi; mammalian cell-expressing RBDomi

B1: CR3022, human IgG1 (antibody, V domains shown)
VH: QMQLVQSGTEVKKPGESLKISCKGSGYGFITYWIGWVRQMPGKGLEWMGIIYPGDSETRYSPSFQGQVTISADKSINTAYLQWSSLKASDTAIYYCAGGSGISTPMDVWGQGTTVTV
VL: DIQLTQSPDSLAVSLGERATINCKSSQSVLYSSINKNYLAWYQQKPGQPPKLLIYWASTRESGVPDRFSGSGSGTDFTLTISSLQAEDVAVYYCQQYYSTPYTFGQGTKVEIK
notes: IgG1
binding result [1]: binds
binding result [2]: binds
